Read-outs that look alike come from different tables or passages of the source.
What was measured:
p300/CBP KIX = p300/CBP KIX (UniProt Q92793); conditions: cited from earlier work
[1] = molecular target: T1, GST-KIX (aa 588-683, from mouse CBP) (mouse, UniProt P45481 588-683); experiment: native gel or EMSA
[2] = molecular target: T1, GST-KIX (aa 588-683, from mouse CBP); experiment: native gel or EMSA; remark: listed apart in the source
[3] = molecular target: untagged KIX (aa 587-679, from mouse CBP) (mouse, UniProt P45481 587-679); experiment: cross-linking
Chain of untagged KIX (aa 587-679, from mouse CBP) (P45481 587-679): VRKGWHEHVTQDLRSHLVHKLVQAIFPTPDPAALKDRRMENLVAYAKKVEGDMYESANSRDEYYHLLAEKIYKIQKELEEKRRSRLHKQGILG

T1 sequence (P45481 588-683): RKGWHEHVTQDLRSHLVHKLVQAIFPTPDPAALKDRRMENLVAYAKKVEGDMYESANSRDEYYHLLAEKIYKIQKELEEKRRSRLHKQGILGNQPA
Chain of p300/CBP KIX (Q92793 587-666): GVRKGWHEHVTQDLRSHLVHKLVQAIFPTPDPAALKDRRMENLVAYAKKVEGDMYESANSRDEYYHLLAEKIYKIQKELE

Which Kd (p300/CBP KIX) does the source give for CREB (from UniProt P16220) here?
The Kd was 108000 nM.

B1: Gal4-HBZ-AD wt (Gal4-DBD aa 1-147 fused to the N-terminus of HBZ-AD aa 1-77) (domain or fragment)
chain: MAASGLFRCLPVSCPEDLLVEELVDGLLSLEEELKDKEEEEAVLDGLLSLEEESRGRLRRGPPGEKAPPRGETHRDR
For B1, which Kd [1] is on record?
Its Kd is 3 ± 0.5 nM.

B2: Gal4-HBZ-Mut-AD1 (domain or fragment)
chain: MAASGLFRCLPVSCPEDLLVEELVDGAASLEEELKDKEEEEAVLDGLLSLEEESRGRLRRGPPGEKAPPRGETHRDR
With B2 as the molecule, how does the Kd [2] read?
Its Kd is 800 nM.

B3: Gal4-HBZ-Mut-AD2 (domain or fragment)
chain: MAASGLFRCLPVSCPEDLLVEELVDGLLSLEEELKDKEEEEAVLDGAASLEEESRGRLRRGPPGEKAPPRGETHRDR
For B3, which Kd [2] is on record?
Its Kd is 180 nM.

B4: HBZ-AD wt (aa 1-77, without the Gal4-DBD fusion) (domain or fragment)
chain: MAASGLFRCLPVSCPEDLLVEELVDGLLSLEEELKDKEEEEAVLDGLLSLEEESRGRLRRGPPGEKAPPRGETHRDR
With B4 as the molecule, how does the “stoichiometry N” value [3] read?
The value was 1.

Source: article PMC3139367 (Journal of molecular biology, 2011)
